Measurements taken from publication PMC3223204, “Implantation Serine Proteinase 1 Exhibits Mixed Substrate Specificity that Silences Signaling via Proteinase-Activated Receptors” (PLoS ONE, 2011).
No end group written: not given here.

Target: T1, purified recombinant ISP1 (Mus musculus, UniProt Q924N9)
T1 construct: Myc (C); His6 (C); made in house; host or cells: Pichia pastoris SMD1168
T1 sequence (Q924N9 31-274 limits assumed): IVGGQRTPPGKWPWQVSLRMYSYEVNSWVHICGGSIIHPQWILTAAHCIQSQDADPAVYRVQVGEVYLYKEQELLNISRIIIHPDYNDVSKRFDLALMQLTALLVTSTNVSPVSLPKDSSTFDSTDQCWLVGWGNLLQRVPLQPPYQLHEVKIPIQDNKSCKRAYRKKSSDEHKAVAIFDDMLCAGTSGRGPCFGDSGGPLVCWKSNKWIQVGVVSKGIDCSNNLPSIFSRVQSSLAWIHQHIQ
Test: In vitro cleavage of synthetic peptides by ISP1 (HPLC, MALDI-TOF)
Assay type: biochemical
Settings: for Cleavage of synthetic peptide by ISP1: 37°C, up to overnight, HPLC; for ISP1 cleavage site in synthetic peptide: MALDI-TOF / amino acid analysis / ES-MS
Protocol: Synthetic peptides (1 mg/ml) diluted in 25 mM Tris.Cl (pH 7.8) were incubated with 2.0 units of purified recombinant ISP1 (total volume of reaction mixture: 0.5 ml) at 37°C overnight. The reaction was terminated by the addition of 0.1% trifluoroacetic acid and the mixture was separated using HPLC with an acetonitrile gradient in 0.1% v/v trifluoroacetic acid. The positions of the hydrolysis products monitored by ultraviolet absorption (E215) were compared to the elution position of the intact peptide. The masses of the individual peaks (E215) were determined by MALDI-TOF mass spectroscopy and were used to deduce the predicted amino acid sequences, based on the parent peptide sequence (amino acids are abbreviated by their one-letter codes, e.g., A = alanine, R = arginine). Except where indicated, all chemical reagents were from VWR International (Mississauga, ON, Canada).
The rat PAR2 sequence representing the cleavage/activation domain (^30 GPNSKGR/ SLIGRLDT ^45P: tethered ligand sequence, underlined), the 27-mer synthetic sequence derived from the N-terminal residues […] of rat PAR2 (I^48 […] ^74) and a 17-mer synthetic peptide sequence derived from extracellular loop 2 of rat PAR2 (V^229 LPEEVLVGDMFSYFLS ^245) were selected for the proteolysis studies. […] The 17-mer ^229–245PAR2 sequence is the potential binding site of the activating peptide. […] These peptides at a concentration of 100 µM were incubated with implantation serine proteinase 1 for varying times up to overnight at 37°C. The incubation buffers were identical to the buffers used for the measurements of enzymatic activities using AMC-substituted peptide substrates. Reactions were terminated either by rapid freezing in liquid nitrogen or by the addition to the proteolysis sample of 2 volumes of a “stop solution” comprising 50% acetonitrile and 0.1% trifluoroacetic acid in water. Samples were either subjected immediately to HPLC analysis, with collection of the E215 peak fractions, or were stored at −80°C for further processing. The cleavage products in peaks of absorption resolved by HPLC were quantified (E215), collected and their identity was established by mass spectral MALDI analysis. Some of the peaks recovered from the HPLC columns, but not ascertained by mass spectral analysis (MALDI-TOF), were identified by total amino acid analysis. Analyses were done at the Southern Alberta Mass Spectrometry Facility at the University of Calgary, Faculty of Medicine (Calgary, Alberta, Canada).

Row | Cleavage of synthetic peptide by ISP1 | Substance | ISP1 cleavage site in synthetic peptide
1 | successfully cleaved | ITGKGAPVEPGFSVDEFSASVLTGKLT-NH2 [27 mer peptide] | between an alanine (P1 sub site) residue and a serine (P1′ sub site) residue
2 | cleaved by ISP1 | RRFYIQ-NH2 | 
3 | not cleaved | cleavage/activation sequence of PAR2: sequence representing the cleavage/activation site of rat PAR2 (30 GPNSKGR/ SLIGRLDT 45P) (GPNSKGRSLIGRLDTP; UniProt Q63645 30-45, looked up, fragment) | 

Row | Substance | Cleavage of synthetic peptide by ISP1 | ISP1 cleavage site in synthetic peptide
4 | VLPEEVLVGDMFSYFLS [17-mer synthetic peptide, derived from the extracellular loop 2 domain of rat PAR2] | successfully cleaved | between a tyrosine (P1 sub site) residue and a phenylalanine (P1′ sub site) residue; a phenylalanine (P1 sub site) and a leucine (P1′ sub site) residue; a leucine (P1 sub site) and a serine (P1′ sub site) residue
